Legend:
[1] = test system: human platelets; experiment: Collagen I-induced platelet aggregation in platelet rich plasma; type: cell-based; conditions: 10 μM, 2 μg/mL collagen I, saline 85%±19%, mean ± SD, four donors
[2] = target: GST-tagged α2A domain (UniProt P17301); experiment: ELISA
Sequence of UniProt P17301 (P17301 30-1181): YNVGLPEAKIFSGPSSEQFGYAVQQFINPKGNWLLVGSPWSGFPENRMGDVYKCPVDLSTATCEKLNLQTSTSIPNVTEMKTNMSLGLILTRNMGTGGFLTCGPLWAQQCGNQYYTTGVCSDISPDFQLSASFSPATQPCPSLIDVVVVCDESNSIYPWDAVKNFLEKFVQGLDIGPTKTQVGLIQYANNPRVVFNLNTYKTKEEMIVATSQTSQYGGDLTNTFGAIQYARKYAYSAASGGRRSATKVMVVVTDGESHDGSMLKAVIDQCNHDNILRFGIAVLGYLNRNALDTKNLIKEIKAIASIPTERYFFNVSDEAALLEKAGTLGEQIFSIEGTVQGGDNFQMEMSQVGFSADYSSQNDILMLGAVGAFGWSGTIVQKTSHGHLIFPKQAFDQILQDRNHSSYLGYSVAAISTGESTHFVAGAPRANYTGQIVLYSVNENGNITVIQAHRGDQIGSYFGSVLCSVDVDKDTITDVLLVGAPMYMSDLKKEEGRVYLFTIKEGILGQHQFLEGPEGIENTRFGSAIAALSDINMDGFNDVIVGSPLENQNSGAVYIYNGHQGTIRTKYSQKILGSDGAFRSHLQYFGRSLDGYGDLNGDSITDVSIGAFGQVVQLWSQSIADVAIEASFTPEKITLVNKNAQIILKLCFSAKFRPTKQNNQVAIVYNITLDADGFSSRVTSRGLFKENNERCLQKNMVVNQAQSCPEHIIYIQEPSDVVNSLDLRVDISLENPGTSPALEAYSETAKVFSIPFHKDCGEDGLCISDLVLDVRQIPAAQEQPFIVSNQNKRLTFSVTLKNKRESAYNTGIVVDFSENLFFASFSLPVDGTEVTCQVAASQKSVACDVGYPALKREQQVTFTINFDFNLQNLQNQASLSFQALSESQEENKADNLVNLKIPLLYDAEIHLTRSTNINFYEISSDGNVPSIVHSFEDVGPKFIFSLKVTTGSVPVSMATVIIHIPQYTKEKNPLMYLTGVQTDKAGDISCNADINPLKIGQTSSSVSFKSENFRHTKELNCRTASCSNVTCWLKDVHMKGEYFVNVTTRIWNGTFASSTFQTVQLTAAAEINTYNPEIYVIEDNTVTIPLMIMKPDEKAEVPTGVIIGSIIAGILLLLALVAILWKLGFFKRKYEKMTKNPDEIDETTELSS

Row | percent inhibition of GST-α2A binding to collagen I [2] [%] | Molecule | platelet aggregation, collagen-induced, in PRP [1]
1 |  | CC(=O)Oc1cc2c(s1)CCN(C(C(=O)C1CC1)c1ccccc1F)C2 (stereo not drawn) [prasugrel] | 34%±18%
2 | 30 | Vipegitide (peptide) | 
3 | 30 | Vipegitide-PEG2 (peptide) | 
